Measurements reported in patent US8338155B2, “Modified mevalonate kinase with reduced feedback inhibition” (DSM IP Assets B.V., priority 2004, dated 2012).

Tests used:
[1] = tested on: Paracoccus zeaxanthinifaciens strain R114; experiment: Coenzyme Q10 production in fed-batch cultivation of recombinant strains; assay type: cell-based; details: 70 h, strain R114 with plasmid pBBR-K-mev-op-(S. cerevisiae mvk-N66K/I152M)-PcrtE-ddsAwt vs pBBR-K-mev-op-(S. cerevisiae mvk)-PcrtE-ddsAwt
Source text: To test the in vivo effect of mutation N66K/I152M on the production of coenzyme Q10, the DNA encoding S. cerevisiae mevalonate kinase mutant N66K/1152M (SEQ ID NO:5) is introduced into Paracoccus zeaxanthinifaciens and compared to the CoQ10 production in P. zeaxanthinifaciens carrying the DNA encoding the wild-type S. cerevisiae mevalonate kinase (SEQ ID NO:2).
Plasmids according to pBBR-K-mev-op-R114-PcrtE-ddsAwt, are constructed wherein the mevalonate operon, including its promoter region, from P. zeaxanthinifaciens R114 (see above) is replaced by either the DNA encoding the wild-type S. cerevisiae mevalonate kinase (SEQ ID NO:2) resulting in pBBR-K-mev-op-(S. cerevisiae mvk)-PcrtE-ddsAwt or the DNA encoding S. cerevisiae mevalonate kinase mutant N66K/1152M (SEQ ID NO:5) resulting in pBBR-K-mev-op-(S. cerevisiae mvk-N66K/I152M)-PcrtE-ddsAwt. […]
Coenzyme Q10 production is tested in fed-batch cultivations of P. zeaxanthinifaciens strains R114/pBBR-K-mev-opR114-PcrtE-ddsAwt, R114/pBBR-K-mev-op-(S. cerevisiae mvk)-PcrtE-ddsAwt and R114/pBBR-K-mev-op-(S. cerevisiae mvk-N66K/1152M)-PcrtE-ddsAwt. […] The precultures are incubated at 28° C. with shaking at 250 rpm for 28 h, after which time the optical density at 660 nm (OD660) is between 14 and 22 absorbance units, depending on the strain used. […]

[2] = tested on: Saccharomyces cerevisiae mevalonate kinase; experiment: Mevalonate kinase activity assay (NADH consumption, photometric at 340 nm): specific activity; assay type: biochemical; details: purified His6-tagged enzyme; WT = non-mutated His6-tagged mevalonate kinase
Source text: Methods for measuring specific activity are known to the person skilled in the art. The specific activity may for instance be determined via measuring the consumption of NADH. Suitable conditions for such measurement may be those as e.g. outlined in Example 1 except that, typically, saturating substrate concentrations are used or, in the case of enzyme inhibition at high substrate concentrations, at substrate concentrations that provide maximal activity under the particular experimental conditions.
(§1) For preparing mevalonate as substrate, 130 mg of DL-mevalonate lactone (FLUKA Chemie AG, Buchs, Switzerland) were dissolved in 5.5 ml of 0.2 M KOH and incubated for 15 min at 50° C. The solution was then adjusted to pH 7.0 by addition of 0.1 M HCl at room temperature (RT). Except if stated otherwise, the assay mixture consisted of 100 mM K2BPO/KH2PO4 (pH 7.0), 1 mM ATP, 2 mM MgCl2, 1 mM mevalonate, 0.5 mM phosphoenolpyruvate (PEP), 0.32 mM NADH, 20 U/ml pyruvate kinase and 27 U/ml lactate dehydrogenase (Sigma-Aldrich, St. Louis, Mo., USA). Inhibition was tested by adding 1 μM FPP.
(§2) Purification of His6-tagged mevalonate kinase and of His6-tagged mevalonate kinase mutant enzymes was done with Ni-NTA chromatography using the QIAexpress system/reagents of Qiagen. Upon addition of purified (His6-tagged) mevalonate kinase, enzymatic reaction reflected by consumption of NADH was followed by photometric measurement at 340 nm. One unit (1 U) of mevalonate kinase activity catalyzes the phosphorylation of 1 μmol of mevalonate per min.
(§3) Preparation of Mevalonate and Activity Measurement was Exactly Performed as Described in Example 1. 1 μM FPP was used for inhibition assays performed with the Saccharomyces cerevisiae mevalonate kinase wild-type enzyme and its mutants.

[3] = tested on: Saccharomyces cerevisiae mevalonate kinase; experiment: Inhibition of mevalonate kinase activity by the feedback inhibitor FPP: feedback resistance; assay type: biochemical; details: 1 μM FPP; % resistance=100·((d/c)−(b/a))/(1−(b/a)) relative to wild-type
Protocol: “Feedback resistance” as used herein may be any increase in resistance to “feedback inhibition” (as defined above). Feedback resistance can be analyzed in different ways known to those skilled in the art. An appropriate example of such an analysis is shortly described herein: mevalonate kinase activity is measured in an activity assay at non-saturating concentrations of for instance ATP (or of another phosphate donor) and mevalonate (or mevalonate analogue), i.e., at for instance ATP (or phosphate donor) and mevalonate (or mevalonate analogue) concentrations around which the reaction rate is sensitive to changes of these substrate concentrations, e.g., at concentrations around the respective Km values of the enzyme under investigation for these substrates. The activities of both wild-type mevalonate kinase and of a variant/mutant of this enzyme are measured under otherwise identical conditions both in the absence and presence of a relevant concentration of a feedback inhibitor, i.e., at a concentration of feedback inhibitor affording significant inhibition of the wild-type mevalonate kinase. If the extent of inhibition (e.g., % inhibition) by the feedback inhibitor is lower for the mutant than for the wild-type enzyme, then the mutant is feedback resistant in the context of the present patent application. Once a feedback resistant variant/mutant has been identified, the same procedure as described above may be applied to identify further improved mutants, i.e., mutants that are even more feedback resistant. Feedback resistance (%) is calculated as follows: if (a) and (b) are the measured mevalonate kinase activities of the wild-type enzyme in the absence and presence, respectively, of the feedback inhibitor (e.g., FPP), and if (c) and (d) are the measured mevalonate kinase activities of the mutant enzyme in the absence and presence, respectively, of the same feedback inhibitor, then % feedback resistance is: % resistance=100·((d/c)−(b/a))/(1−(b/a))
as §1, §2, §3
Feedback resistance (%) was calculated according to the following formula: % resistance=100·((d/c)−(b/a))/(1−(b/a)) wherein (a) and (b) refer to the measured mevalonate kinase activities of the wild-type enzyme in the absence and presence, respectively, and (c) and (d) refer to the measured mevalonate kinase activities of the mutant enzyme in the absence and presence, respectively, of FPP. The results are shown in Tab. 1, wherein WT represents the non-mutated mevalonate kinase containing a His6-tag (SEQ ID NO:3).

B1: N66K, I152M: Saccharomyces cerevisiae mevalonate kinase mutant with substitutions N66K and I152M (encoding DNA SEQ ID NO:5) (protein, listed as Saccharomyces cerevisiae)
chain: MSLPFLTSAPGKVIIFGEHSAVYNKPAVAASVSALRTYLLISESSAPDTIELDFPDISFNHKWSIKDFNAITEDQVNSQKLAKAQQATDGLSQELVSLLDPLLAQLSESFHYHAAFCFLYMFVCLCPHAKNIKFSLKSTLPIGAGLGSSASMSVSLALAMAYLGGLIGSNDLEKLSENDKHIVNQWAFIGEKCIHGTPSGIDNAVATYGNALLFEKDSHNGTINTNNFKFLDDFPAIPMILTYTRIPRSTKDLVARVRVLVTEKFPEVMKPILDAMGECALQGLEIMTKLSKCKGTDDEAVETNNELYEQLLELIRINHGLLVSIGVSHPGLELIKNLSDDLRIGSTKLTGAGGGGCSLTLLRRDITQEQIDSFKKKLQDDFSYETFETDLGGTGCCLLSAKNLNKDLKIKSLVFQLFENKTTTKQQIDDLLLPGNTNLPWTS
final concentration of coenzyme Q10 produced, higher than strain carrying wild-type S. cerevisiae mvk [1]: at least 5% | Specific activity (% of wild-type) [2]: 148 % of wild-type | Feedback resistance (%) [3]: 67%
